Measurements: the RNAGym collection of RNA variant scans (doi:10.1073/pnas.2313332121)

B1: TPR t1 (parent)
chain: GACCAAUCUGCCCUCAGAGCUCGAGAACAUCUUCGGAUGCAGAGGAGGCAGGCUUCGGUGGCGCGAUAGCGCCAACGUCCUCAACCUCCAAUGCAUCCCACCACAUGAUGAUGCCUGAAGAGCCUUGGUUUUUUG

Variants of: B1
Assay: polymerase ribozyme fitness, log enrichment relative to wild type (log ratio); higher = more active; in vitro selection for triplet polymerase activity
How it was run: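 Mutant libraries of each subunit of a heterodimeric triplet polymerase ribozyme were built by PCR and transcribed. Each library went through one round of in vitro selection in triplicate: annealing with biotinylated primer, partner subunit and triplets, frozen incubation at −7 °C, gel excision of extended constructs, streptavidin-bead capture and RT-PCR. Input and output libraries were Illumina-sequenced; only genotypes with ≥10 input reads and ≥1 read per output were kept. Fitness is log2(genotype enrichment/wild-type enrichment), using inverse-variance-weighted replicate averages.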

Compared with C11G A16C A37C G60U C89G C114G, G10C G42A G63U A91C G113A G122U is higher in “polymerase ribozyme fitness (log ratio)” value: -6.69 for the first, -4.47 for the second.

Going from C11A G57U to C11G A119G, the “polymerase ribozyme fitness (log ratio)” value rises from -1.56 to 0.484.

First: G10A G52A G60A C79A C115A U132A
Second: G10U A84G C86A
The “polymerase ribozyme fitness (log ratio)” value of the first is lower: -1.53 for the first, -0.969 for the second.

Compared with C11G C13G G45A G117A, G10A A16C A50G C101A is lower in “polymerase ribozyme fitness (log ratio)” value: -1.92 for the first, -2.99 for the second.

Going from G10A G71C to C11A A37G U81G, the “polymerase ribozyme fitness (log ratio)” value falls from -0.717 to -5.66.

First: C11G A46U C56U C70A C85A C104U
Second: C11A G51U C85U G120C
The “polymerase ribozyme fitness (log ratio)” value of the first is lower: -6.28 for the first, -3.38 for the second.

Going from G10U C101A U125G to C11A G36A G61U G128A, the “polymerase ribozyme fitness (log ratio)” value falls from -2.32 to -4.02.

First: G10U C22U A46G U54G C56G G61A A74U U92A C114A U116A
Second: C11A U38G C56U C86G U112C
The “polymerase ribozyme fitness (log ratio)” value of the first is lower: -6.68 for the first, -2.57 for the second.

First: C11G C13G C56U G93A
Second: G10A C20U G57U G113U
The “polymerase ribozyme fitness (log ratio)” value of the first is higher: -0.689 for the first, -2.28 for the second.

Compared with G10A U133G, G10A C15U G17A A41U C72U A105U G120A G122A is lower in “polymerase ribozyme fitness (log ratio)” value: -0.322 for the first, -5.83 for the second.

Compared with C11A G48C G71A U87G U106G A121U, C11A G71A G77A C82G is lower in “polymerase ribozyme fitness (log ratio)” value: -2.38 for the first, -3.86 for the second.

Compared with G10U C13U G57C G58U C88U G107A C123U, C11A G48A C62U G128C is higher in “polymerase ribozyme fitness (log ratio)” value: -6.52 for the first, -3 for the second.

Going from G10A G36U G44U G61U C88U A95G U96A G120A to G10U G39C, the “polymerase ribozyme fitness (log ratio)” value rises from -7.26 to -0.652.

Going from U9G G57U to G10C G48C C102U, the “polymerase ribozyme fitness (log ratio)” value falls from -0.376 to -2.77.

First: G10A C70G
Second: G10A C70A
The “polymerase ribozyme fitness (log ratio)” value of the first is lower: -2.45 for the first, -1.32 for the second.

First: C11A G45U
Second: C11A U59A
The “polymerase ribozyme fitness (log ratio)” value of the first is lower: -2.48 for the first, -1.59 for the second.

Compared with U9G U55A, C11A G47A G77A is lower in “polymerase ribozyme fitness (log ratio)” value: -0.0521 for the first, -2.62 for the second.

Going from G10C C73A C101U U130C to C11A C62U, the “polymerase ribozyme fitness (log ratio)” value falls from -0.689 to -1.47.

First: C11A C62A
Second: C11A C62G
The “polymerase ribozyme fitness (log ratio)” value of the first is lower: -2.86 for the first, -2.04 for the second.

Going from G10U C53U A91U U92A C97U to C11A G71A A91G A121U, the “polymerase ribozyme fitness (log ratio)” value rises from -6.09 to 0.674.

G10A G48C U54A C94U G110U A121C C123G and G10A G19A are within 0.2 log units of each other in “polymerase ribozyme fitness (log ratio)” value: -1.01 for the first, -0.895 for the second.

Going from C11G A84U G122A to G10U A37U G52U C56U C73G U116G, the “polymerase ribozyme fitness (log ratio)” value falls from 0.157 to -4.51.

Going from G10A G47C C89U C124G to C11A C115U G122U, the “polymerase ribozyme fitness (log ratio)” value falls from -0.208 to -0.883.

Going from G10C A27U G39U to U9G G63C C72A, the “polymerase ribozyme fitness (log ratio)” value falls from -3.03 to -3.45.

First: C11A A16U A24U C31G C34G A37C C73A C115U G117C
Second: G10A C13U U14A G61U C104G
The “polymerase ribozyme fitness (log ratio)” value of the first is lower: -7.35 for the first, -6.29 for the second.

Going from G10U G47U A74G G113U C123G U126A to C11A G107C G113A C124A, the “polymerase ribozyme fitness (log ratio)” value falls from -3.52 to -6.29.

Going from C11A G36C to G10C A83U, the “polymerase ribozyme fitness (log ratio)” value rises from -2.32 to -1.28.

Compared with G10A G63A, G10U G39U G77C A100C is lower in “polymerase ribozyme fitness (log ratio)” value: -0.758 for the first, -2.58 for the second.

Going from C11A C56U G69A C76A C79A C124A to G10U C28U C53U C73U U96C C104A G110A, the “polymerase ribozyme fitness (log ratio)” value rises from -7.17 to 0.843.

Going from G10C G42C G44U C72U U87G to U9G G52U C70G G122A, the “polymerase ribozyme fitness (log ratio)” value rises from -5.88 to -4.3.

Going from G10A A29G C62U G113A U130A to C11A U38C, the “polymerase ribozyme fitness (log ratio)” value rises from -3.56 to -2.34.

Going from G10A C12U G36U C53A to G10U U14A, the “polymerase ribozyme fitness (log ratio)” value falls from -0.13 to -1.65.

Going from C11A C72U A75G U129A to C11G C12U A50G G71A U133G, the “polymerase ribozyme fitness (log ratio)” value falls from -3.18 to -4.01.

Compared with C11G A26C G77U U81A C97U G113A, G10C C89G A121C is higher in “polymerase ribozyme fitness (log ratio)” value: -6.37 for the first, 0.737 for the second.

First: C11A C70U C76A
Second: C11A C79U
The “polymerase ribozyme fitness (log ratio)” value of the first is lower: -3.78 for the first, -1.59 for the second.

Going from U9G G117A to G10U U21G C64A A95G C123U U125A, the “polymerase ribozyme fitness (log ratio)” value falls from 0.595 to -6.83.

Compared with G10A U55C C70U, U9G G57U U96A U112A is higher in “polymerase ribozyme fitness (log ratio)” value: -0.798 for the first, 0.146 for the second.

Going from C11A A46U C53A C72A to U9G G63U G120C, the “polymerase ribozyme fitness (log ratio)” value rises from -2.19 to 0.237.

G10U U38G A41G and G10U C53G G61C A84U are within 0.2 log units of each other in “polymerase ribozyme fitness (log ratio)” value: -1.27 for the first, -1.21 for the second.

Compared with C11G A29G C72G C123A, C11A C15A A37G C40A G120U is lower in “polymerase ribozyme fitness (log ratio)” value: -0.598 for the first, -6.11 for the second.

Going from C11G A24G C49G U59G to C11A C13G C20U C53U C64U U78G, the “polymerase ribozyme fitness (log ratio)” value falls from -2.66 to -3.27.

For C11A A41U G71U C72U A100U A103G C115A, the “polymerase ribozyme fitness (log ratio)” value was -6.78.
